32 variants from the supplement of paper PMC7125110 can be followed below.

Sequences and labels used below:
B1: glmS ribozyme (parent)
chain: AUAAAAGCGCCAGAACUACAGAAAUGUAGUUGACGAGGAGGAGGUUUAUCGAAUUUUCGGCGGAUGCCUCCAAA

What all share (settings): with glucosamine-6-phosphate
Series [1] covers variants of B1. As to the kind of experiment: self-cleavage kobs at 640 uM GlcN6P; higher = faster cleavage; RNA array. The essentials: (§1)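 kobs was derived by fitting per-tile medians to one- or two-exponential decays after normalising signals to baseline and to non-cleaving reference variants. Those signals came from barcoded ribozyme variants transcribed in situ by E. coli RNA polymerase on sequenced MiSeq chips, followed through a hybridised Cy3 probe at 37 °C and imaged over ~14 h. Glucosamine-6-phosphate (40 μM to 10 mM) in HEPES/KCl/Mg(OAc)2 buffer was flowed in. Weighted Michaelis–Menten fits across concentrations then gave kcat and KM.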

Series [2] covers variants of B1. As to the kind of experiment: self-cleavage kobs at 2500 uM GlcN6P; higher = faster cleavage; RNA array. An outline of the steps: as §1
The variants in series [3] derive from B1. As to the kind of experiment: self-cleavage kobs at 10000 uM GlcN6P; higher = faster cleavage; RNA array. An outline of the steps: as §1

± gives the standard error. Variants at the floor of the assay were thinned out.

For the variant C11A G63A, the “self-cleavage kobs at 640 uM GlcN6P” value with glucosamine-6-phosphate [1] was below 1e-05 s⁻¹. For the same variant, the “self-cleavage kobs at 2500 uM GlcN6P” value with glucosamine-6-phosphate [2] was below 1e-05 s⁻¹. For the same variant, in the series with glucosamine-6-phosphate [3], the “self-cleavage kobs at 10000 uM GlcN6P” value was below 1e-05 s⁻¹. On to A6G G7U U31C A36C, for which the “self-cleavage kobs at 640 uM GlcN6P” value with glucosamine-6-phosphate [1] was below 1e-05 s⁻¹. The “self-cleavage kobs at 2500 uM GlcN6P” value with glucosamine-6-phosphate [2] was below 1e-05 s⁻¹. For the variant A6G C11A G59U G60C, in the series with glucosamine-6-phosphate [1], the “self-cleavage kobs at 640 uM GlcN6P” value is below 1e-05 s⁻¹. With G7U C8A U30G G44C, the “self-cleavage kobs at 640 uM GlcN6P” value with glucosamine-6-phosphate [1] is below 1e-05 s⁻¹.

With A6U C34G U47G C67U C68A, in the series with glucosamine-6-phosphate [1], the “self-cleavage kobs at 640 uM GlcN6P” value was found to be 0.000407 ± 0.00013 s⁻¹. In addition, in the series with glucosamine-6-phosphate [2], the “self-cleavage kobs at 2500 uM GlcN6P” value turned out to be 8.02e-05 ± 2.6e-05 s⁻¹.

As to U31G G35U A36G U47A A64G C68U C71G, the “self-cleavage kobs at 640 uM GlcN6P” value in the series with glucosamine-6-phosphate [1] amounted to 9.41e-05 ± 3.3e-05 s⁻¹. On the same count and under the same terms, the result for C8U A53G U55A C68G reads 0.000442 ± 0.00017 s⁻¹. Consider U46A U55C, for which the “self-cleavage kobs at 640 uM GlcN6P” value in the series with glucosamine-6-phosphate [1] was found to be 0.00095 ± 0.00025 s⁻¹. The “self-cleavage kobs at 2500 uM GlcN6P” value in the series with glucosamine-6-phosphate [2] came out at 0.00269 ± 0.00043 s⁻¹. In the series with glucosamine-6-phosphate [3], the “self-cleavage kobs at 10000 uM GlcN6P” value turned out to be 0.0029 ± 0.00062 s⁻¹. For the variant G43A A53G G60U, in the series with glucosamine-6-phosphate [1], the “self-cleavage kobs at 640 uM GlcN6P” value is below 1e-05 s⁻¹. Further, in the series with glucosamine-6-phosphate [2], the “self-cleavage kobs at 2500 uM GlcN6P” value was below 1e-05 s⁻¹.

Take A6G A14G A33U: the “self-cleavage kobs at 640 uM GlcN6P” value with glucosamine-6-phosphate [1] was below 1e-05 s⁻¹. In the case of A6G U47G C61A A64U, the “self-cleavage kobs at 640 uM GlcN6P” value with glucosamine-6-phosphate [1] was below 1e-05 s⁻¹. A42C U49G C58A: the “self-cleavage kobs at 640 uM GlcN6P” value with glucosamine-6-phosphate [1] is below 1e-05 s⁻¹. Further, the “self-cleavage kobs at 2500 uM GlcN6P” value with glucosamine-6-phosphate [2] was below 1e-05 s⁻¹. On to U31C G37A A53G, for which, in the series with glucosamine-6-phosphate [1], the “self-cleavage kobs at 640 uM GlcN6P” value came to 5.04e-05 ± 8.3e-06 s⁻¹. Also, the “self-cleavage kobs at 2500 uM GlcN6P” value with glucosamine-6-phosphate [2] is 0.000126 ± 2e-05 s⁻¹. As to G40U G44U C68U, the “self-cleavage kobs at 640 uM GlcN6P” value in the series with glucosamine-6-phosphate [1] was below 1e-05 s⁻¹. As to C10G A53U U57A, in the series with glucosamine-6-phosphate [1], the “self-cleavage kobs at 640 uM GlcN6P” value is below 1e-05 s⁻¹. As for G7A G40U C58U, in the series with glucosamine-6-phosphate [1], the “self-cleavage kobs at 640 uM GlcN6P” value is below 1e-05 s⁻¹. The “self-cleavage kobs at 2500 uM GlcN6P” value with glucosamine-6-phosphate [2] was below 1e-05 s⁻¹.

On to U49C G63C C67G C68G, for which the “self-cleavage kobs at 640 uM GlcN6P” value with glucosamine-6-phosphate [1] was below 1e-05 s⁻¹. Same read-out and setting: next, A36G G38U C50A G62A: below 1e-05 s⁻¹. In the case of G9C G29A G41A, the “self-cleavage kobs at 640 uM GlcN6P” value with glucosamine-6-phosphate [1] was below 1e-05 s⁻¹. Also, the “self-cleavage kobs at 2500 uM GlcN6P” value with glucosamine-6-phosphate [2] is below 1e-05 s⁻¹.

On to A6G A53G C61A, for which the “self-cleavage kobs at 640 uM GlcN6P” value with glucosamine-6-phosphate [1] is below 1e-05 s⁻¹. The “self-cleavage kobs at 2500 uM GlcN6P” value in the series with glucosamine-6-phosphate [2] was below 1e-05 s⁻¹.

On to G35C G40A U46G G66A, for which the “self-cleavage kobs at 640 uM GlcN6P” value in the series with glucosamine-6-phosphate [1] is below 1e-05 s⁻¹. Moreover, in the series with glucosamine-6-phosphate [2], the “self-cleavage kobs at 2500 uM GlcN6P” value is below 1e-05 s⁻¹. As for A12U A33G A48C, the “self-cleavage kobs at 640 uM GlcN6P” value with glucosamine-6-phosphate [1] was below 1e-05 s⁻¹. Besides, the “self-cleavage kobs at 2500 uM GlcN6P” value with glucosamine-6-phosphate [2] was below 1e-05 s⁻¹.

For the variant C8A G32A A36C G41A A42U, the “self-cleavage kobs at 640 uM GlcN6P” value in the series with glucosamine-6-phosphate [1] is below 1e-05 s⁻¹. Moreover, the “self-cleavage kobs at 2500 uM GlcN6P” value with glucosamine-6-phosphate [2] is below 1e-05 s⁻¹. Consider G13C G37A G62A, for which the “self-cleavage kobs at 640 uM GlcN6P” value with glucosamine-6-phosphate [1] was below 1e-05 s⁻¹. In the series with glucosamine-6-phosphate [2], the “self-cleavage kobs at 2500 uM GlcN6P” value was below 1e-05 s⁻¹. The “self-cleavage kobs at 10000 uM GlcN6P” value in the series with glucosamine-6-phosphate [3] is below 1e-05 s⁻¹. Regarding C10A U47G, in the series with glucosamine-6-phosphate [1], the “self-cleavage kobs at 640 uM GlcN6P” value is below 1e-05 s⁻¹. Further, the “self-cleavage kobs at 2500 uM GlcN6P” value with glucosamine-6-phosphate [2] was below 1e-05 s⁻¹. Consider C11G G43C U45C, for which the “self-cleavage kobs at 640 uM GlcN6P” value in the series with glucosamine-6-phosphate [1] is below 1e-05 s⁻¹. Further, the “self-cleavage kobs at 2500 uM GlcN6P” value in the series with glucosamine-6-phosphate [2] is below 1e-05 s⁻¹. Turning to G7U A36G G38U, the “self-cleavage kobs at 640 uM GlcN6P” value in the series with glucosamine-6-phosphate [1] was below 1e-05 s⁻¹. Take C11U U30C G43A: in the series with glucosamine-6-phosphate [1], the “self-cleavage kobs at 640 uM GlcN6P” value is below 1e-05 s⁻¹.

With C50G U57G G66U C70G, in the series with glucosamine-6-phosphate [1], the “self-cleavage kobs at 640 uM GlcN6P” value was 0.000982 ± 0.0003 s⁻¹. The “self-cleavage kobs at 2500 uM GlcN6P” value in the series with glucosamine-6-phosphate [2] stood at 0.000139 ± 4.9e-05 s⁻¹. Turning to C8U U31G G35U G44A C70U, the “self-cleavage kobs at 640 uM GlcN6P” value in the series with glucosamine-6-phosphate [1] is below 1e-05 s⁻¹. The “self-cleavage kobs at 2500 uM GlcN6P” value in the series with glucosamine-6-phosphate [2] is below 1e-05 s⁻¹. For A12U A52U G60A, the “self-cleavage kobs at 640 uM GlcN6P” value in the series with glucosamine-6-phosphate [1] is below 1e-05 s⁻¹. As to U46A U65A, in the series with glucosamine-6-phosphate [1], the “self-cleavage kobs at 640 uM GlcN6P” value came to 0.000776 ± 0.0002 s⁻¹.
